# Measurements from US20210316007A1 (DUKE UNIVERSITY, published 2021).
# B1: ABDN-ELP (albumin binding domain N fused to the N-terminus of ELP) (designed binder)
# chain: LAEAKVLANRELDKYGVSDYYKNLINNAKTVEGVKALIDEILAALPVPGAGVPGAGVPGAGVPGAGVPGAGVPGAGVPGAGVPGAGVPGAGVPGAGVPGAGVPGAGVPGAGVPGAGVPGAGVPGAGVPGAGVPGAGVPGAGVPGAGVPGAGVPGAGVPGAGVPGAGVPGAGVPGAGVPGAGVPGAGVPGAGVPGAGVPGAGVPGAGVPGAGVPGAGVPGAGVPGAGVPGAGVPGAGVPGAGVPGAGVPGAGVPGAGVPGAGVPGAGVPGAGVPGAGVPGAGVPGAGVPGAGVPGAGVPGAGVPGAGVPGAGVPGAGVPGAGVPGAGVPGAGVPGAGVPGAGVPGAGVPGAGVPGAGVPGAGVPGAGVPGAGVPGAGVPGAGVPGAGVPGAGVPGAGVPGAGVPGAGVPGAGVPGAGVPGAGVPGAGVPGAGVPGAGVPGAGVPGAGVPGAGVPGAGVPGAGVPGAGVPGAGVPGAGVPGAGVPGAGVPGAGVPGAGVPGAGVPGAGVPGAGVPGAGVPGAGVPGAGVPGAGVPGAGVPGAGVPGAGVPGAGVPGAGVPGAGVPGAGVPGAGVPGAGVPGAGVPGAGVPGAGVPGAGVPGAGVPGAGVPGAGVPGAGVPGAGVPGAGVPGAGVPGAGVPGAGVPGAGVPGAGVPGAGVPGAGVPGAGVPGAGVPGAGVPGAGVPGAGVPGAGVPGAGVPGAGVPGAGVPGAGVPGAGVPGAGVPGAGVPGAGVPGAGVPGAGVPGAGVPGAGVPGAGVPGAGVPGAGVPGAGVPGAGCGGCGGCGGCGGCGGCGGCGGCGG
# notes: Unconjugated monomer, 68.5 kDa by SDS-PAGE; also called ABDN-CP; ABD-CP
# B2: ABDH-ELP (albumin binding domain H, engineered variant of ABDN, fused to the N-terminus of ELP) (designed binder)
# chain: LAEAKVLANRELDKYGVSDFYKRLINKAKTVEGVEALKLHILAALPVPGAGVPGAGVPGAGVPGAGVPGAGVPGAGVPGAGVPGAGVPGAGVPGAGVPGAGVPGAGVPGAGVPGAGVPGAGVPGAGVPGAGVPGAGVPGAGVPGAGVPGAGVPGAGVPGAGVPGAGVPGAGVPGAGVPGAGVPGAGVPGAGVPGAGVPGAGVPGAGVPGAGVPGAGVPGAGVPGAGVPGAGVPGAGVPGAGVPGAGVPGAGVPGAGVPGAGVPGAGVPGAGVPGAGVPGAGVPGAGVPGAGVPGAGVPGAGVPGAGVPGAGVPGAGVPGAGVPGAGVPGAGVPGAGVPGAGVPGAGVPGAGVPGAGVPGAGVPGAGVPGAGVPGAGVPGAGVPGAGVPGAGVPGAGVPGAGVPGAGVPGAGVPGAGVPGAGVPGAGVPGAGVPGAGVPGAGVPGAGVPGAGVPGAGVPGAGVPGAGVPGAGVPGAGVPGAGVPGAGVPGAGVPGAGVPGAGVPGAGVPGAGVPGAGVPGAGVPGAGVPGAGVPGAGVPGAGVPGAGVPGAGVPGAGVPGAGVPGAGVPGAGVPGAGVPGAGVPGAGVPGAGVPGAGVPGAGVPGAGVPGAGVPGAGVPGAGVPGAGVPGAGVPGAGVPGAGVPGAGVPGAGVPGAGVPGAGVPGAGVPGAGVPGAGVPGAGVPGAGVPGAGVPGAGVPGAGVPGAGVPGAGVPGAGVPGAGVPGAGVPGAGVPGAGVPGAGVPGAGVPGAGVPGAGVPGAGCGGCGGCGGCGGCGGCGGCGGCGG
# notes: Unconjugated monomer, 68.6 kDa by SDS-PAGE; also called ABDH-CP
# B3: ABDH-CP-DOX micelles (doxorubicin-conjugated ABDH-chimeric polypeptide) (designed binder)
# chain: LAEAKVLANRELDKYGVSDFYKRLINKAKTVEGVEALKLHILAALPVPGAGVPGAGVPGAGVPGAGVPGAGVPGAGVPGAGVPGAGVPGAGVPGAGVPGAGVPGAGVPGAGVPGAGVPGAGVPGAGVPGAGVPGAGVPGAGVPGAGVPGAGVPGAGVPGAGVPGAGVPGAGVPGAGVPGAGVPGAGVPGAGVPGAGVPGAGVPGAGVPGAGVPGAGVPGAGVPGAGVPGAGVPGAGVPGAGVPGAGVPGAGVPGAGVPGAGVPGAGVPGAGVPGAGVPGAGVPGAGVPGAGVPGAGVPGAGVPGAGVPGAGVPGAGVPGAGVPGAGVPGAGVPGAGVPGAGVPGAGVPGAGVPGAGVPGAGVPGAGVPGAGVPGAGVPGAGVPGAGVPGAGVPGAGVPGAGVPGAGVPGAGVPGAGVPGAGVPGAGVPGAGVPGAGVPGAGVPGAGVPGAGVPGAGVPGAGVPGAGVPGAGVPGAGVPGAGVPGAGVPGAGVPGAGVPGAGVPGAGVPGAGVPGAGVPGAGVPGAGVPGAGVPGAGVPGAGVPGAGVPGAGVPGAGVPGAGVPGAGVPGAGVPGAGVPGAGVPGAGVPGAGVPGAGVPGAGVPGAGVPGAGVPGAGVPGAGVPGAGVPGAGVPGAGVPGAGVPGAGVPGAGVPGAGVPGAGVPGAGVPGAGVPGAGVPGAGVPGAGVPGAGVPGAGVPGAGVPGAGVPGAGVPGAGVPGAGVPGAGVPGAGVPGAGVPGAGVPGAGVPGAGVPGAGVPGAGCGGCGGCGGCGGCGGCGGCGGCGG
# notes: Self-assembled micelle; aggregates at 37 °C without albumin
# B4: ABD-CP-PTX micelles (paclitaxel-conjugated ABD-chimeric polypeptide) (designed binder)
# chain: LAEAKVLANRELDKYGVSDYYKNLINNAKTVEGVKALIDEILAALPVPGAGVPGAGVPGAGVPGAGVPGAGVPGAGVPGAGVPGAGVPGAGVPGAGVPGAGVPGAGVPGAGVPGAGVPGAGVPGAGVPGAGVPGAGVPGAGVPGAGVPGAGVPGAGVPGAGVPGAGVPGAGVPGAGVPGAGVPGAGVPGAGVPGAGVPGAGVPGAGVPGAGVPGAGVPGAGVPGAGVPGAGVPGAGVPGAGVPGAGVPGAGVPGAGVPGAGVPGAGVPGAGVPGAGVPGAGVPGAGVPGAGVPGAGVPGAGVPGAGVPGAGVPGAGVPGAGVPGAGVPGAGVPGAGVPGAGVPGAGVPGAGVPGAGVPGAGVPGAGVPGAGVPGAGVPGAGVPGAGVPGAGVPGAGVPGAGVPGAGVPGAGVPGAGVPGAGVPGAGVPGAGVPGAGVPGAGVPGAGVPGAGVPGAGVPGAGVPGAGVPGAGVPGAGVPGAGVPGAGVPGAGVPGAGVPGAGVPGAGVPGAGVPGAGVPGAGVPGAGVPGAGVPGAGVPGAGVPGAGVPGAGVPGAGVPGAGVPGAGVPGAGVPGAGVPGAGVPGAGVPGAGVPGAGVPGAGVPGAGVPGAGVPGAGVPGAGVPGAGVPGAGVPGAGVPGAGVPGAGVPGAGVPGAGVPGAGVPGAGVPGAGVPGAGVPGAGVPGAGVPGAGVPGAGVPGAGVPGAGVPGAGVPGAGVPGAGVPGAGVPGAGVPGAGVPGAGVPGAGVPGAGVPGAGVPGAGCGGCGGCGGCGGCGGCGGCGGCGG
# notes: Self-assembled micelle; also called ABDN-CP-PTX
# B5: ABDN-CP-DOX micelles (doxorubicin-conjugated ABDN-chimeric polypeptide) (designed binder)
# chain: LAEAKVLANRELDKYGVSDYYKNLINNAKTVEGVKALIDEILAALPVPGAGVPGAGVPGAGVPGAGVPGAGVPGAGVPGAGVPGAGVPGAGVPGAGVPGAGVPGAGVPGAGVPGAGVPGAGVPGAGVPGAGVPGAGVPGAGVPGAGVPGAGVPGAGVPGAGVPGAGVPGAGVPGAGVPGAGVPGAGVPGAGVPGAGVPGAGVPGAGVPGAGVPGAGVPGAGVPGAGVPGAGVPGAGVPGAGVPGAGVPGAGVPGAGVPGAGVPGAGVPGAGVPGAGVPGAGVPGAGVPGAGVPGAGVPGAGVPGAGVPGAGVPGAGVPGAGVPGAGVPGAGVPGAGVPGAGVPGAGVPGAGVPGAGVPGAGVPGAGVPGAGVPGAGVPGAGVPGAGVPGAGVPGAGVPGAGVPGAGVPGAGVPGAGVPGAGVPGAGVPGAGVPGAGVPGAGVPGAGVPGAGVPGAGVPGAGVPGAGVPGAGVPGAGVPGAGVPGAGVPGAGVPGAGVPGAGVPGAGVPGAGVPGAGVPGAGVPGAGVPGAGVPGAGVPGAGVPGAGVPGAGVPGAGVPGAGVPGAGVPGAGVPGAGVPGAGVPGAGVPGAGVPGAGVPGAGVPGAGVPGAGVPGAGVPGAGVPGAGVPGAGVPGAGVPGAGVPGAGVPGAGVPGAGVPGAGVPGAGVPGAGVPGAGVPGAGVPGAGVPGAGVPGAGVPGAGVPGAGVPGAGVPGAGVPGAGVPGAGVPGAGVPGAGVPGAGVPGAGVPGAGVPGAGVPGAGCGGCGGCGGCGGCGGCGGCGGCGG
# notes: Self-assembled micelle; also called ABD-CP-DOX
# Experiments:
# human serum albumin [1] = target: T1, human serum albumin (human, UniProt P02768 25-609); experiment: ITC, HSA titrated into ELP, PBS pH 7.4, 37 °C; Example 2 ITC series (FIG. 3A), naked ELP control
# T1 construct: also called HSA; human albumin
# mouse serum albumin [2] = target: T2, mouse serum albumin (mouse, UniProt P07724 25-608); experiment: ITC (Nano ITC), albumin titrated into construct, PBS, 37 °C; PTX-example ITC series (Table 10), CP without ABD and without drug; µM fit
# T2 construct: also called MSA; mouse albumin
# mouse serum albumin [3] = target: T2, mouse serum albumin; experiment: ITC, MSA titrated into ELP, PBS pH 7.4, 37 °C; Example 2 ITC series (FIG. 4A), naked ELP control; fitted N with an error larger than the value
# human serum albumin [4] = target: T1, human serum albumin; experiment: ITC, HSA titrated into ELP, PBS pH 7.4, 37 °C; Example 2 ITC series (FIG. 3A), naked ELP control; weak µM best-fit KD that the text calls no specific affinity
# mouse serum albumin [5] = target: T2, mouse serum albumin; experiment: ITC, MSA titrated into ELP, PBS pH 7.4, 37 °C; Example 2 ITC series (FIG. 4A), naked ELP control; weak µM best-fit KD that the text calls no specific affinity
# mouse serum albumin [6] = target: T2, mouse serum albumin; experiment: ITC, MSA titrated into CP-DOX micelles, PBS pH 7.4, 37 °C
# human serum albumin [7] = target: T1, human serum albumin; experiment: ITC, HSA titrated into ABDN-ELP, PBS pH 7.4, 37 °C
# Experimental: (§1) The experiments were performed in phosphate buffered saline (pH 7.4) at 37° C.
# mouse serum albumin [8] = target: T2, mouse serum albumin; experiment: ITC, MSA titrated into ABDN-ELP, PBS pH 7.4, 37 °C
# Experimental: as §1
# mouse serum albumin [9] = target: T2, mouse serum albumin; experiment: ITC (Nano ITC), albumin titrated into construct, PBS, 37 °C
# human serum albumin [10] = target: T1, human serum albumin; experiment: as above
# mouse serum albumin [11] = target: T2, mouse serum albumin; experiment: ITC, MSA titrated into ABDH-ELP, PBS pH 7.4, 37 °C
# Experimental: as §1
# mouse serum albumin [12] = target: T2, mouse serum albumin; experiment: ITC, MSA titrated into ABDH-CP-DOX micelles, PBS pH 7.4, 37 °C
# Experimental: as §1
# mouse serum albumin [13] = target: T2, mouse serum albumin; experiment: ITC (Nano ITC), albumin titrated into micelles, PBS, 37 °C
# Experimental: (§2) For PTX conjugates, ITC was conducted using a Nano ITC system (TA Instruments, Utah, USA). […] For background correction, PBS (in the cell) was titrated with albumin (in the syringe) at the same concentrations and conditions. Background was subtracted from the final curves and the binding and thermodynamic parameters binding constant (KD), number of binding sites (n), and enthalpy (ΔH)—were computed by non-linear fitting to an independent-binding site model using TA Instruments NanoAnalyze software.
# human serum albumin [14] = target: T1, human serum albumin; experiment: as above
# Experimental: as §2
# mouse serum albumin [15] = target: T2, mouse serum albumin; experiment: ITC, MSA titrated into ABDN-CP-DOX micelles, PBS pH 7.4, 37 °C
# Experimental: as §1
# T2 sequence (P07724 25-608 limits assumed): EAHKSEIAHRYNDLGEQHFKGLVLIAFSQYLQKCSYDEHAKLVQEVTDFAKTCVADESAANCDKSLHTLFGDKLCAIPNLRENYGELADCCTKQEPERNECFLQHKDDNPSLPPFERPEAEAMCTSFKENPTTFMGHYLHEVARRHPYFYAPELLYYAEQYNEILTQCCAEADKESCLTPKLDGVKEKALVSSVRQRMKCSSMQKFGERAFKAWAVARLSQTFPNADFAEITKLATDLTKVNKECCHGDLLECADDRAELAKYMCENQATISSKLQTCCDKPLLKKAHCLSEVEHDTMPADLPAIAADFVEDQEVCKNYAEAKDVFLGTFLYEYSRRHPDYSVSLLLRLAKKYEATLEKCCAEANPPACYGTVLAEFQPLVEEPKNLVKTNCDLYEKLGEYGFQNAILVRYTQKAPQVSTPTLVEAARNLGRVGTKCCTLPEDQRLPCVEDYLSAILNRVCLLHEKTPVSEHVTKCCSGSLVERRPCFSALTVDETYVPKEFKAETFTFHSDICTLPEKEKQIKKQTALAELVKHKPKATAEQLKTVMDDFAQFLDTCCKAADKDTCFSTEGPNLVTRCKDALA
molecule,measurement,setting,value
ELP (naked elastin-like polypeptide with no ABD at its N-terminus),binding stoichiometry N,human serum albumin [1],0.75
same,Kd,mouse serum albumin [2],3500 nM
same,binding stoichiometry N,mouse serum albumin [3],0.152
same,Kd,human serum albumin [4],69000 nM
same,Kd,mouse serum albumin [5],71400 nM
CP-DOX micelles (doxorubicin-conjugated chimeric polypeptide without ABD),Kd,mouse serum albumin [6],91900 nM
same,binding stoichiometry N,mouse serum albumin [6],0.0386
B1,Kd,human serum albumin [7],48.4 nM
same,Kd,mouse serum albumin [8],66.4 nM
same,Kd,mouse serum albumin [9],16.3 nM
same,Kd,human serum albumin [10],6.47 nM
B2,Kd,mouse serum albumin [11],5.19 nM
B3,Kd,mouse serum albumin [12],66.1 nM
B4,Kd,mouse serum albumin [13],4.37 nM
same,Kd,human serum albumin [14],5.58 nM
B5,Kd,mouse serum albumin [15],318 nM
